As a reminder, the Kd is the free concentration of one partner at which half of the binding sites on the other are occupied at equilibrium, for simple one-to-one binding. Low readings indicate higher affinity, high ones lower affinity. For orientation: koff means a measure of how fast the partners let go of each other.

Some results are limits rather than exact numbers.

The target in assay [1] is T1, EDC cross-linked ConM SOSIP soluble gp140 Env trimer (GMP) (HIV-1 (group M consensus)).
T1 construct: copies: 3 + 3
Nature of the assay: BLI. The following applies: both partners purified.

Assay [2] addresses T2, ConM SOSIP soluble gp140 Env trimer, unmodified (GMP) (HIV-1 (group M consensus)).
T2 construct: copies: 3 + 3
Nature of the assay: BLI. The following applies: both partners purified.

B1: PGT122 Fab (Fab, V domains shown)
VH: QVHLQESGPGLVKPSETLSLTCNVSGTLVRDNYWSWIRQPLGKQPEWIGYVHDSGDTNYNPSLKSRVHLSLDKSKNLVSLRLTGVTAADSAIYYCATTKHGRRIYGVVAFKEWFTYFYMDVWGKGTSVTVSS
VL: APTFVSVAPGQTARITCGEESLGSRSVIWYQQRPGQAPSLIIYNNNDRPSGIPDRFSGSPGSTFGTTATLTITSVEAGDEADYYCHIWDSRRPTNWVFGEGTTLIVL
notes: source: Freestyle 293F cells, serum-free, purified (HiTrap KappaSelect, Mono S)
For B1, the Kd in assay [1] and in assay [2] was under 1 pM in each case. The koff in assay [1] and in assay [2] was under 1e-07 s⁻¹ in each case.

Values taken from paper PMC10345191 (NPJ Vaccines, 2023).
